{"source": "the DeepSol protein solubility set", "data": [{"test": "soluble on expression in E. coli; label from the status in PepcDB or PDB records", "values": [{"sequence": "MIAVSFKCRCQILRRLTKDESPYTKSASQTKPPDGALAVRRQSIPEEFKGSTVVELMKKEGTTLGLTVSGGIDKDGKPRVSNLRQGGIAARSDQLDVGDYIKAVNGINLAKFRHDEIISLLKNVGERVVLEVEYELPPVSVQGSSVIFRTVEVTLHKEGNTFGFVIRGGAHDDRNKSRPVVITCVRPGGPADREGTIKPGDRLLSVDGIRLLGTTHAEAMSILKQCGQEAALLIEYDVSVMDSVATASGPLLVEVAKTPGASLGVALTTSMCCNKLVIVIDKIKSASIADRCGALHVGDHILSIDGTSMEYCTLAEATQFLANTTDQVKLEILPHHQTRLALKGPDHAALVSSSFSPTSMSAYSLSSLNMGTLPRSLYSTSPRGTMMRRRLKKKDFKSSLSLASSTVGLAGQVVHTETTEVVLTADPVTGFGIQLQGSVFATETLSSPPLISYIEADSPAERCGVLQIGDRVMAINGIPTEDSTFEEASLLLRDSSITSKVTLEIEFDVAESVIPSSGTFHVKLPKKHNVELGITISSPSSRKPGDPLVISDIKKGSVAHRTGTLELGDKLLAIDNIRLDNCSMEDAVQILQQCEDLVKLKIRKDEDNSDEQESSGAIIYTVELKRYGGPLGITISGTEEPFDPIIISSLTKGGLAERTGAIHIGDRILAINSSSLKGKPLSEAIHLLQMAGETVTLKIKKQTDAQSASSPKKFPISSHLSDLGDVEEDSSPAQKPGKLSDMYPSTVPSVDSAVDSWDGSAIDTSYGTEGTSFQASGYNFNTYDWRSPKQRGSLSPVTKPRSQTYPDVGLSYEDWDRSTASGFAGAADSAETEQEENFWSQALEDLETCGQSGILRELEATIMSGSTMSLNHEAPTPRSQLGRQASFQERSSSRPHYSQTTRSNTLPSDVGRKSVTLRKM", "soluble on expression in E. coli": "soluble"}, {"sequence": "MGSDKIHHHHHHENLYFQGMTQLELLLERIIDRVNVNLRHQKFDVGDYVRRQTPHLHYSKFYAFYGLSADDPVHFHFKNSSLAGSYLLGRVNVLHSALYKSDIRGDELKRKGQHFVCDGKMIPLHDDEVITIKDSFLNKTLVHSNSHDPESPEEFTIRNTVAMPYANIHGSLTEGSFIGSFATVDLSTIHNSVVRYFSYVQTGELVGKCVEPGQIWIKSGDELEFHYSFDKAILDKYISQEAGSCPTGVLMEFVEVRQEDFEEVFASGHMASGAGSASGASVSGYAVIKGDTVIGENVLVSQRAYLDNAWMGKGSNAQENCYIINSRLERNCVTAHGGKIINAHLGDMIFTGFNSFLQGSESSPLKIGDGCVVMPHTIIDLEEPLEIPAGHLVWGYIRNKADLAAHSISFEEFAKVDGEVTMGRMTFRGKGGPFLDSFKKRIKRILSENGAFFDGSEGTGHAQKGKNFTFNIIQPYQDGDPRGMYPTILIQPNNGS", "soluble on expression in E. coli": "soluble"}, {"sequence": "MGSDKIHHHHHHMARYSKKMKLLINTPSLKFLGGGVANHYIGLRTFWTENVKYNVVGRRGGKSGSGKYWLPWDIFKFIFRLLTFRPNIILLNPSLGDKALKRDFIYLNICRFFRKKTSVFIHGFNFEYAKNADWKWISTNLNKALCIFVLSQEFKNELIRRGVKSDIHLTSTKVPDYFISGFDLSMRQGKAKNIMYSGRIEKAKGVYETVDTFSILKSQYKDLTLTFVGDGSELPKLKQYVENKKIKDVRFTGRLCGEDFKKEYINADMYLFLSYTEGMPTVVLEAMIFGLPIFTRKVGGLIDFFENGKMGYISSSLDPVVFAEAMKPYIESSAKMKSVSLYNSEYARTHFIASVVARKFENTLNYEYFKNQEHREH", "soluble on expression in E. coli": "not soluble"}, {"sequence": "MGSDKIHHHHHHMSINDKEKKKLQRAILIIACEVARICKKNDIPYFINGGTQIGAVRHNGFIPWDDDFDIGFKRKDYEKFIKACDKDLNKDKFFLQTPETEEYYAFDFAKLQLKGTEIIEDFSKNVKIQHGIFVDLFPHDNIPDCKLKRKLFLFKNHLMKNILWVKCGYGEKKHKSKLSYKMVKFVSKFFSIKQIKQSRSKLLDKYNNTKTTQCIISDYPNDLIMNSWLDDLQLFRFEEVEFYGIKQYDAYLKSLYGDYMSLPPESERIVHSNYKIDFGLYDGLLEDMLYGNNI", "soluble on expression in E. coli": "not soluble"}, {"sequence": "MDTTTTSSLKSAEKKDTDATPRAHSPEIDVEVIKSDCSTPEKQNGAVGNEQQMNNSTSTRRTDSNKNLSPPPQRLRTSSSTSDGTENLISSLSSWDWVTIDGLKLPAVTRNKERYVAVHMVQLKLLSKFPSDIPRDITRKFTMGSHKMTVTEAWTFNTINAVIRKFDLGCQLFTANDELVKLNDVQMFYWNVKLFNLKRVNGQYETAISSAENNVQLLATAMQLKKQVDSDIQVIFK", "soluble on expression in E. coli": "not soluble"}]}]}
